In the supplement of paper PMC12764529:
± gives the half width of the 95% confidence interval.

Columns and labels:
[1] = folding stability dG unfold from trypsin proteolysis; higher = more stable
How it was run: (§1)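 Designed mini-proteins with no cysteine and under 80 residues were kept only if AlphaFold2 dimer inter-PAE was above 15. In a PA-tagged cDNA display construct, they were digested with trypsin and chymotrypsin and then sequenced. K50 was inferred by Bayesian fitting of counts, and unfolding free energy was derived per protease or combined against a sequence-predicted unfolded-state K50 and a shared folded-state K50.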

[2] = folding stability dG unfold from chymotrypsin proteolysis; higher = more stable
How it was run: as §1

[3] = folding stability dG unfold (combined trypsin and chymotrypsin); higher = more stable
How it was run: as §1

Row | Sequence | folding stability dG unfold [1] [kcal/mol] | folding stability dG unfold [2] [kcal/mol] | folding stability dG unfold [3] [kcal/mol]
1 | SAGGSAGGSGSMKEIEIEIPKDDPQLIEKIKEELKQKNSKKVEVKEIKKTPEGKYKVKIIIEESAGGSAGGS [r12_91_JUSTAS] | 1.03 ± 0.1 | 0.901 ± 0.081 | 0.879 ± 0.17
2 | SAGGSAGGSGSMPVTIEIEYKDPKSDKTFKKTILVPPSVTDPEAVAEEVAKELGPVEKVKITSSAGGSAGGS [r12_942_JUSTAS] | 0.595 ± 0.061 | -0.44 ± 0.24 | 0.0443 ± 0.48
3 | SAGGSAGGSGSSLVSETVEEGPGLTTRTLTYRLPGAPGVLLERTVTYDPEGNELATSLTVVPESAGGSAGGS [r12_62_JUSTAS] | 0.0552 ± 0.052 | 0.0935 ± 0.076 | 0.15 ± 0.059
4 | SAGGSAGGSGWIKIEFWIPIPIPVMKFDPGDGNWEMEPVTIMIRVEIEIPIPPSPEDLEKNGLSAGGSAGGS [r20_172_TrROS] | 2.2 ± 0.15 | 2.82 ± 0.069 | 2.57 ± 0.27
5 | SAGGSAGGSGWRPARVVRVERYRDPVNPRWYYRVEAELPDRRVTLVVPENAPVDEDGVLLIPFSAGGSAGGS [r20_49_TrMRF] | 1.09 ± 0.027 | 1.45 ± 0.042 | 1.35 ± 0.034
6 | SAGGSAGGSGWYFHFEVSIWVMEFKYPGPDGKTMTMWFIMIEIKIEIVPPPPITPEDAAKMNGSAGGSAGGS [r12_1060_TrROS] | 2.66 ± 0.06 | 4.24 ± 0.087 | 3.76 ± 0.16
7 | SAGGSAGGSHEIIIRVDSPEDAIEQAKSILRDHGIPEGFEPVPIEVLERDPNNGYYYVQIEVKSAGGSAGGS [r12_999_TrROS] | 0.601 ± 0.026 | -0.453 ± 0.077 | 0.178 ± 0.1
8 | SAGGSAGGSHTIEIWIVKFPPDDFKGKTIEEMAKKFGDPDMPVEIVPIEITLPPDALKALLKNSAGGSAGGS [r12_178_TrROS] | 0.768 ± 0.033 | 0.841 ± 0.061 | 0.846 ± 0.059
9 | SAGGSAGGSIPPDVPVDLGAEVEYFPPGGVRRVRFSAPDGTPVATATFVFRGGELVEVRIEPASAGGSAGGS [r12_264_TrMRF] | 1.89 ± 0.053 | 2.07 ± 0.13 | 2.05 ± 0.15
10 | SAGGSAGGSITTVTGVYKTPDGNPTAATFEVANKPDGTVTYTVTVPGTGKTFSTDSLDLVTVDGSAGGSAGG [r6_255_JUSTAS] | 0.296 ± 0.027 | 0.563 ± 0.072 | 0.485 ± 0.042
11 | SAGGSAGGSKAEIVSVEKLPEEGELYLVKIRVDGKTYTIAVPVGSTVTIDVPPGAEIEIRKLPSAGGSAGGS [r12_373_TrROS_Hall] | 1.62 ± 0.038 | 2.619 ± 0.019 | 2.32 ± 0.046
12 | SAGGSAGGSKEKTYVIKVTITNENGEEFTLELTVTMTEEEAEELAKKLKELYPNAKVTIEKLPSAGGSAGGS [r12_268_TrROS_Hall] | 4.16 ± 0.21 | 4.09 ± 0.12 | 4.13 ± 0.16
13 | SAGGSAGGSKGPVVILIFRPKYNPVKGIELEVEEVIVVSPEELSLSALGPALEEKEGYALILPSAGGSAGGS [r20_75_TrMRF] | 1.26 ± 0.015 | 1.32 ± 0.068 | 1.37 ± 0.038
14 | SAGGSAGGSKIKIIVPKEKEEEAERLAKELKEKGEIPEVEIEVVESEEEAKELEEKADLVIVVSAGGSAGGS [r12_679_TrROS_Hall] | -0.562 ± 0.43 | 1.11 ± 0.19 | 0.805 ± 0.31
15 | SAGGSAGGSKKEEFYKITVYSPNKKAEEIAKKIQEETGTEIVEVKAEKFKDGGIKVIALVKKTSAGGSAGGS [r12_359_TrMRF] | -0.213 ± 0.19 | -0.558 ± 0.67 | -0.0936 ± 0.48
16 | SAGGSAGGSKKIIRFKTKEEAEEALKKAKPGETLEITLPNGEKIEVKVTKVERVDGYYYIEVESAGGSAGGS [r12_907_TrROS_Hall] | 2.53 ± 0.08 | 3.44 ± 0.077 | 3.13 ± 0.07
17 | SAGGSAGGSKKIMIPGSPDTAFSTIKEWIRNGHEVPIYYYSPGNPEPVAEQEITIDEEENDELSAGGSAGGS [r12_241_TrROS] | -0.683 ± 0.3 | -0.183 ± 0.21 | -0.309 ± 0.2
18 | SAGGSAGGSKKITIVVPTKEQAEALAKALEEAGYKVEKLPDGTLKITVDGKKIEVRIVPPKPKSAGGSAGGS [r12_204_TrROS_Hall] | 1.28 ± 0.023 | 3.15 ± 0.047 | 2.7 ± 0.059
19 | SAGGSAGGSKKKIKITVEKVDEEKGYYYVTIEIYDEETGELVEKKTIVAPSKEEALKALKELLSAGGSAGGS [r12_26_TrROS_Hall] | 4.41 ± 0.32 | 3.5 ± 0.2 | 4.08 ± 0.35
20 | SAGGSAGGSKKKKKITIEILIKLKPGESPEEIAKKLEEKLGLKVKKVEVVKENGYYLVKIEIESAGGSAGGS [r20_188_TrROS_Hall] | 1.52 ± 0.038 | 3.26 ± 0.044 | 2.85 ± 0.084
21 | SAGGSAGGSKKKKKKIKIKIVVNEDELAKKLGLSKEEVRKLAKELADELKKKGYEVEIEIIPPSAGGSAGGS [r12_576_TrROS_Hall] | 1.87 ± 0.049 | 3.29 ± 0.054 | 2.89 ± 0.054

Row | Sequence | folding stability dG unfold [1] [kcal/mol] | folding stability dG unfold [2] [kcal/mol] | folding stability dG unfold [3] [kcal/mol]
22 | SAGGSAGGSKKKPPPVKVKIRVVVDGKVYEIEIEVDPNMTVEEIKEALRKLLGPDIKEVEIEPSAGGSAGGS [r12_300_TrROS_Hall] | 2.91 ± 0.29 | 1.93 ± 0.25 | 3.07 ± 0.64
23 | SAGGSAGGSKKKTIVILVPPGMSVDAIKKKLKELGIKVKIVPAPPVKVKVDEKTNELKVEKVTSAGGSAGGS [r12_80_TrROS_Hall] | 0.874 ± 0.059 | 0.618 ± 0.086 | 0.657 ± 0.15
24 | SAGGSAGGSKKKVKVKKFEKTKDADGNEVVKVFFEDDGKVVTLPEELADKLKEDDEFDLEDLASAGGSAGGS [r20_3_TrMRF] | -0.314 ± 0.077 | 0.381 ± 0.053 | 0.139 ± 0.1
25 | SAGGSAGGSKKKVKVVKVEKLEDGSVRVLLYNEDGELVLEIEFPPGMTEEEVEELVKKLLEELSAGGSAGGS [r12_798_TrROS_Hall] | 2.47 ± 0.1 | 2.72 ± 0.13 | 2.69 ± 0.13
26 | SAGGSAGGSKKKVVIEVVIKVKKEDEEKIKKALEKELEKLGFKVKEVKVERTKNYVKVTVVLESAGGSAGGS [r12_731_TrROS_Hall] | 2.7 ± 0.17 | 3.89 ± 0.2 | 3.63 ± 0.28
27 | SAGGSAGGSKKKYIIKVKIYNENGELVEEKEIEAESEEEALEALAKNPNISKEEITKIEVYELSAGGSAGGS [r12_182_TrROS_Hall] | 2.24 ± 0.041 | 2.1 ± 0.054 | 2.19 ± 0.08
28 | SAGGSAGGSKKPIDIKIEDVDHRRNPNGQPYMKIRIEIPGKPLLSYTFPPGASVEDFLKNILSSAGGSAGGS [r20_115_TrROS] | 1.1 ± 0.033 | 0.96 ± 0.1 | 1.09 ± 0.057
29 | SAGGSAGGSKKPKFKVKKVEVVEENGKLRIRIVLEDGKKIEIEIKGLSKEEIEKKAKELLKKLSAGGSAGGS [r20_181_TrROS_Hall] | 3.57 ± 0.33 | 3.93 ± 0.2 | 3.66 ± 0.22
30 | SAGGSAGGSKKPVKVTVTVEVNPETGEITKVTVTEEYKDGTVTVTVTNANGEKLTFTFKIKKPSAGGSAGGS [r12_60_TrROS_Hall] | 2.15 ± 0.11 | 3.099 ± 0.024 | 2.79 ± 0.082
31 | SAGGSAGGSKKVTIVLSKEELRELFENLTPEQIAELLKKKFPKIKRVEVKEVDGKLVIEVEVESAGGSAGGS [r12_590_TrROS_Hall] | 3.15 ± 0.26 | 3.59 ± 0.1 | 3.43 ± 0.17
32 | SAGGSAGGSKKVYLKVTVYHKNGKKTTLEIGPITDEDGKPIETYAKELAEHPDVEKVEVEVLGSAGGSAGGS [r12_199_TrMRF] | 3.79 ± 0.13 | 4.19 ± 0.13 | 4.05 ± 0.17
33 | SAGGSAGGSKLKLEIPPGFKNVEIEVLKYNPDNGYIRVKITIYDPNNGKQFTMDRWIPADDLKSAGGSAGGS [r12_964_TrROS] | 1.62 ± 0.099 | 1.65 ± 0.16 | 1.56 ± 0.19
34 | SAGGSAGGSKLSEEEKKKLAKKPKIKIKVKIRNKDGKEYKPGEKVKIEINGKIYEIESIEIEPSAGGSAGGS [r12_43_TrROS_Hall] | 1.12 ± 0.049 | 1.36 ± 0.04 | 1.3 ± 0.085
35 | SAGGSAGGSKLVLRIVVRNKETGEWQTLELEIEVEESEEEALAKAKELLASLPEEDVKIEILPSAGGSAGGS [r12_871_TrROS_Hall] | 3.18 ± 0.14 | 3.79 ± 0.065 | 3.56 ± 0.071
36 | SAGGSAGGSKNDWGEFDAEVPFFKEKKKVKIYKNPDNPNIYYIEFPKTGKIFKVYPNGEIKEESAGGSAGGS [r12_580_TrMRF] | 1.01 ± 0.062 | 1.75 ± 0.17 | 1.49 ± 0.16
37 | SAGGSAGGSKPKRRRVQIELPLPPGKPITPDHIREFMRPFGAPKVEITNIHPTNGRWIITFELSAGGSAGGS [r20_79_TrROS] | 1.98 ± 0.031 | 2.6 ± 0.11 | 2.42 ± 0.14
38 | SAGGSAGGSKPLVIRVRLTYYDEKTGKKVKEVELTLTVSEEEAKKLAEELKKLYPNVEVEIFPSAGGSAGGS [r12_342_TrROS_Hall] | 4.37 ± 0.53 | 4.67 ± 0.13 | 4.84 ± 0.39
39 | SAGGSAGGSKPPPTVEIEITLEDGTVLRIRVTPDRIEIENLETGKRFTFPPGATIEIEVRKLPSAGGSAGGS [r12_227_TrROS_Hall] | 3.95 ± 0.82 | 3.73 ± 0.49 | 4.19 ± 0.56
40 | SAGGSAGGSKPPVKTIPRWIPFPPGQTPNELVDELRKLFPPGMEVDVEYDPEPGYVRVSITFRSAGGSAGGS [r12_12_TrROS] | 2.19 ± 0.042 | 1.86 ± 0.047 | 2.06 ± 0.097
41 | SAGGSAGGSKPRLVLEIKIKAESEEEAREEVEKALQEKFGLKIKSVEIEREEDYITVRVEIEPSAGGSAGGS [r12_265_TrROS_Hall] | 2.26 ± 0.081 | 2 ± 0.061 | 1.92 ± 0.23
